This note sets out measurements from the supplement of paper PMC7877785.

± gives the uncertainty stated by the source.

The data set in a line: self-splicing fitness, log relative to wild type (ln ratio); higher = more splicing; Tetrahymena group I intron in knt gene, E. coli kanamycin selection, DiMSum; sequences stand for … in CUCUCU…GGAGGGAAAAGUUAUCAGGCAUGCACCUGGUAGCUAGUCUUUAAACCAAUAGAUUGCAUCGGUUUAAAAGGCAAGACCGUCAAAUUGCGGGAAAGGGGUCAACAGCCGUUCAGUACCAAGUCUCAGGGGAAACUUUGAGAUGGCCUUGCAAAGGGUAUGGUAAUAAGCUGACGGACAUGGUCCUAACCACGCAGCCAAGUCCUAAGUCAACAGAUCUUCUGUUGAUAUGGAUGCAGUUCACAGACUAAAUGUCGGUCGGGGAAGAUGUAUUCUUCUCAUAAGAUAUAGUCGGACCUCUCCUUAAUGGGAGCUAGCGGAUGAAGUGAUGCAACACUGGAGCCGCUGGGAACUAAUUUGUAUGCGAAAGUAUAUUGAUUAGUUUUGGAGUACUCGUGGUCG
In short, it runs like this:
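Pooled colonies went to amplicon sequencing on an Illumina HiSeq 2500 after six replicate transformations. The plates were LB agar with 100 μg/mL carbenicillin, 50 μM IPTG and 0.2% rhamnose, with or without 25 μg/mL kanamycin, incubated overnight at 37°C or 30°C. The E. coli BL21(DE3) library had all eight P1ex-region intron nucleotides randomised, the intron placed in the knt kanamycin-resistance gene on pET-22b(+). DiMSum fitness is the error-weighted combination of replicate fold changes, kanamycin against none, normalised to wild type.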

In the case of UCGUAGCAAUAUUACGUCCG, the “self-splicing fitness (ln)” value (30 °C) was -0.957 ± 0.074 and the “self-splicing fitness (ln)” value (37 °C) was -0.517 ± 0.091. For the sequence CGUGAGCAAUAUUACGUCUA, the “self-splicing fitness (ln)” value (30 °C) was -2.99 ± 0.37 and the “self-splicing fitness (ln)” value (37 °C) is -1.59 ± 0.21. The corresponding values for AAACAGCAAUAUUACGAGGU are -4.6 ± 0.26 and -2.53 ± 0.15. On to UCUUAGCAAUAUUACGUGUA, for which the “self-splicing fitness (ln)” value (30 °C) was -0.944 ± 0.17 and the “self-splicing fitness (ln)” value (37 °C) was -1.19 ± 0.2. The like results for AUAGAGCAAUAUUACGUGGG were, in that order, -3.77 ± 0.31 and -1.79 ± 0.32. The like results for GGGGAGCAAUAUUACGUGCG were, in that order, -1.61 ± 0.14 and -1.54 ± 0.27.

For the sequence CAGCAGCAAUAUUACGCAAC, the “self-splicing fitness (ln)” value (30 °C) was -3.45 ± 0.28 and the “self-splicing fitness (ln)” value (37 °C) is -1.37 ± 0.25. UCCAAGCAAUAUUACGGAAA: the “self-splicing fitness (ln)” value is -2.19 ± 0.2 (30 °C) and -1.51 ± 0.23 (37 °C). AAAUAGCAAUAUUACGAGAA: the “self-splicing fitness (ln)” value (37 °C) is -0.893 ± 0.23. GAGUAGCAAUAUUACGCCAA: the “self-splicing fitness (ln)” value is, setting by setting: (30 °C) -1.98 ± 0.43; (37 °C) -1.66 ± 0.32. With AGCAAGCAAUAUUACGGGGC, the “self-splicing fitness (ln)” value is -3.92 ± 0.29 (30 °C) and -2.89 ± 0.3 (37 °C). The corresponding values for GCCCAGCAAUAUUACGUCAU are -2.82 ± 0.1 and -1.29 ± 0.097. As for UCUCAGCAAUAUUACGCCUG, the “self-splicing fitness (ln)” value (37 °C) was -2.27 ± 0.47. Turning to CGCUAGCAAUAUUACGAUAU, the “self-splicing fitness (ln)” value (30 °C) was -3.98 ± 0.36 and the “self-splicing fitness (ln)” value (37 °C) was -2.63 ± 0.25.

Turning to GAGGAGCAAUAUUACGUACU, the “self-splicing fitness (ln)” value (30 °C) was -2.16 ± 0.16 and the “self-splicing fitness (ln)” value (37 °C) is -0.205 ± 0.19. In the case of AGGAAGCAAUAUUACGAUUU, the “self-splicing fitness (ln)” value reads like this: (30 °C) -0.378 ± 0.078; (37 °C) 0.0421 ± 0.11. The corresponding values for CCUCAGCAAUAUUACGAACU are -2.63 ± 0.37 and -1.64 ± 0.38.

In the case of ACUGAGCAAUAUUACGGAUA, the “self-splicing fitness (ln)” value was -3.08 ± 0.28 (30 °C) and -1.77 ± 0.26 (37 °C). As to UAGUAGCAAUAUUACGCACC, the “self-splicing fitness (ln)” value (37 °C) is -0.0165 ± 0.38. Consider UGUUAGCAAUAUUACGUGAC, for which the “self-splicing fitness (ln)” value reads like this: (30 °C) -2.93 ± 0.31; (37 °C) -2.01 ± 0.29. The like results for CGUGAGCAAUAUUACGUAGA were, in that order, -3.22 ± 0.2 and -2.89 ± 0.22.

Take CCGCAGCAAUAUUACGGACA: the “self-splicing fitness (ln)” value (30 °C) was -4.06 ± 0.46 and the “self-splicing fitness (ln)” value (37 °C) is -2.57 ± 0.17. The corresponding values for CGGCAGCAAUAUUACGUCCG are -2.03 ± 0.12 and -2.92 ± 0.24. The corresponding values for GUAUAGCAAUAUUACGUGGG are -3.28 ± 0.16 and -1.88 ± 0.14. The like results for UUGAAGCAAUAUUACGGCUC were, in that order, -3.8 ± 0.25 and -1.42 ± 0.19.

GGAUAGCAAUAUUACGGCUU: the “self-splicing fitness (ln)” value by setting is: (30 °C) -0.686 ± 0.095; (37 °C) -0.309 ± 0.11. On to GAAAAGCAAUAUUACGAGGA, for which the “self-splicing fitness (ln)” value was -2.03 ± 0.15 (30 °C) and -1.78 ± 0.16 (37 °C).

With AACAAGCAAUAUUACGCCAA, the “self-splicing fitness (ln)” value was -2.32 ± 0.14 (30 °C) and -2.55 ± 0.16 (37 °C). The like results for CGCUAGCAAUAUUACGCGGC were, in that order, -3.25 ± 0.35 and -3.1 ± 0.29.

On to CCCUAGCAAUAUUACGUUCG, for which the “self-splicing fitness (ln)” value by setting is: (30 °C) -3.63 ± 0.27; (37 °C) -2.64 ± 0.33. The corresponding values for GGCAAGCAAUAUUACGGGUU are -0.709 ± 0.077 and -0.607 ± 0.08. The corresponding values for CAAGAGCAAUAUUACGUAUC are -3.78 ± 0.17 and -2.67 ± 0.2. The corresponding values for AAGCAGCAAUAUUACGGGCC are -1.76 ± 0.15 and -1.53 ± 0.15.

GGAUAGCAAUAUUACGUCGU: the “self-splicing fitness (ln)” value reads like this: (30 °C) -0.886 ± 0.1; (37 °C) -0.841 ± 0.12.

GGCUAGCAAUAUUACGUCCU: the “self-splicing fitness (ln)” value reads like this: (30 °C) -1.68 ± 0.1; (37 °C) -1.3 ± 0.13. The like results for CGCGAGCAAUAUUACGAUCA were, in that order, -2.91 ± 0.19 and -2.04 ± 0.16. The corresponding values for ACCUAGCAAUAUUACGAGAU are -2.54 ± 0.091 and -1.3 ± 0.098. The like results for ACCCAGCAAUAUUACGGUUA were, in that order, -0.324 ± 0.059 and -0.361 ± 0.06.

Regarding UCCAAGCAAUAUUACGCACA, the “self-splicing fitness (ln)” value is, setting by setting: (30 °C) -0.502 ± 0.092; (37 °C) -0.309 ± 0.099. The corresponding values for AAAAAGCAAUAUUACGUUCC are -1.3 ± 0.098 and -0.521 ± 0.14. The corresponding values for UUCCAGCAAUAUUACGCGUA are -0.454 ± 0.087 and 0.0549 ± 0.083. Regarding GAUCAGCAAUAUUACGAUCC, the “self-splicing fitness (ln)” value runs as follows: (30 °C) -3.69 ± 0.37; (37 °C) -2.18 ± 0.39. The like results for CGUAAGCAAUAUUACGCUAU were, in that order, -3.13 ± 0.27 and -4.43 ± 0.42. With GAAUAGCAAUAUUACGUGCA, the “self-splicing fitness (ln)” value is, setting by setting: (30 °C) -0.851 ± 0.083; (37 °C) -0.317 ± 0.11.

For AAGGAGCAAUAUUACGGCAG, the “self-splicing fitness (ln)” value is -2.86 ± 0.33 (30 °C) and -1.75 ± 0.32 (37 °C). The corresponding values for UAUCAGCAAUAUUACGCCGA are -1.32 ± 0.12 and -0.34 ± 0.18. The like results for GCUUAGCAAUAUUACGCCUA were, in that order, -2.32 ± 0.28 and -1.05 ± 0.22. The corresponding values for GGAUAGCAAUAUUACGCCUU are -0.526 ± 0.11 and 0.31 ± 0.1.

For UAAUAGCAAUAUUACGUAUC, the “self-splicing fitness (ln)” value (37 °C) is -2.68 ± 0.48. As to CGCAAGCAAUAUUACGUCAC, the “self-splicing fitness (ln)” value is, setting by setting: (30 °C) -3.45 ± 0.21; (37 °C) -2.12 ± 0.23. Turning to UCAAAGCAAUAUUACGUAAG, the “self-splicing fitness (ln)” value reads like this: (30 °C) -1.77 ± 0.08; (37 °C) -0.788 ± 0.1.

With GACGAGCAAUAUUACGACCC, the “self-splicing fitness (ln)” value reads like this: (30 °C) -0.0053 ± 0.24; (37 °C) -0.307 ± 0.22. For the sequence ACGUAGCAAUAUUACGUCAA, the “self-splicing fitness (ln)” value was -3.44 ± 0.27 (30 °C) and -2.34 ± 0.19 (37 °C). The corresponding values for GUGGAGCAAUAUUACGUUCG are -1.45 ± 0.2 and -0.499 ± 0.25.

For the sequence UCUCAGCAAUAUUACGACUA, the “self-splicing fitness (ln)” value by setting is: (30 °C) -1.87 ± 0.12; (37 °C) -1.37 ± 0.12.

In the case of AGUCAGCAAUAUUACGGCUG, the “self-splicing fitness (ln)” value was -0.616 ± 0.12 (30 °C) and -1.96 ± 0.22 (37 °C).

With UGUUAGCAAUAUUACGGAUU, the “self-splicing fitness (ln)” value was -2.53 ± 0.16 (30 °C) and -0.414 ± 0.13 (37 °C). The like results for GGACAGCAAUAUUACGAAAC were, in that order, -0.691 ± 0.12 and -0.624 ± 0.2. For CGUUAGCAAUAUUACGGCCG, the “self-splicing fitness (ln)” value was -1.84 ± 0.41 (30 °C) and -0.176 ± 0.35 (37 °C). In the case of GCGAAGCAAUAUUACGACCU, the “self-splicing fitness (ln)” value is -0.269 ± 0.073 (30 °C) and -0.573 ± 0.086 (37 °C). The corresponding values for GGUAAGCAAUAUUACGGAAC are -1.55 ± 0.17 and -0.543 ± 0.21.
